Measurements taken from patent US20120171123A1, “USES AND COMPOSITIONS FOR TREATMENT OF RHEUMATOID ARTHRITIS” (priority 2006, published 2012).
Like-named read-outs stand apart in the source and are kept apart here.

Tests used:
[1] = test system: patients with moderate to severe rheumatoid arthritis; assay: Study C: EULAR response; format: in vivo, human; details: 12 weeks
Experimental: The Canadian Adalimumab Clinical Trial (Study C) was an open-label, multi-center, Phase IIIb study conducted in Canada. […] Efficacy and safety were assessed at baseline, 4, 8, and 12 weeks. Efficacy assessments included tender joint count (TJC 0-28), swollen joint count (SJC 0-28), Disease Activity Score 28 (DAS28), Health Assessment Questionnaire (HAQ), and EULAR response. This was a preliminary analysis of 236 patients. The sample size for each outcome variable is based on the data available at the time of the analysis. The data from this preliminary analysis were compared with the Week 12 data from Study A (N=2008).

[2] = test system: patients with severe RA who had failed at least one DMARD; assay: Study 2 / Study 3 OLE (adalimumab 40 mg eow monotherapy): HUI3 health utility; format: in vivo, human; details: for mean HUI3 change from baseline: week 26 (6 months), monotherapy
Experimental: In addition to the SF-36 instrument, the Health Utilities Index Mark 3 (HUI3) and the Functional Assessment of Chronic Illness Therapy-Fatigue (FACIT-F) questionnaires were administered at baseline, 12 weeks, and the end of the study.
The HUI3 scale is 0-1, with “1” denoting perfect health and “0” denoting death. FACIT-F scores range from 0-52, with higher scores representing less fatigue. The SF-36 includes one multi-item scale that assesses eight different dimensions of health, including physical and psychosocial components. For each dimension a value of 0-100 is given, with higher numbers representing less impairment. Changes in HUI3 of ≧0.03, in FACIT-F of ≧4 and in SF-36 of ≧4.4 (physical subscales) and ≧3.1 (mental subscales) are considered clinically meaningful.
The HUI3 was assessed at baseline, and at several time points during the study. Health Utility Index 3 (scale=0-1) measures preference of a health state, with “1” denoting perfect health and “0” denoting death. HUI3 changes of ≧0.03 are considered clinically important. The HUI3 classification system consists of 8 attributes and 5 or 6 levels on each attribute, ranging from full function to severe impairment.
Inclusion criteria for this study included: all patients had severe active disease; and all patients had failed prior DMARD(s).
The Health Utilities Index Mark 3 (HUI3) was assessed at three time points. HUI 3 consists of 8 attributes: vision, hearing, speech, ambulation, dexterity, emotion, cognition, and pain. HUI3 score changes of ≧0.03 are considered clinically important. […] As can also be seen in this figure, the Study 2 study population started with baseline values reflecting a patient population with a more severe disease activity than in Study I, as documented by TJC, SJC, HAQ, CRP, and number of previous DMARDs.
In addition to clinical parameters, the SF-36 instrument, the Health Utilities Index Mark 3 (HUI3), and the Functional Assessment of Chronic Illness Therapy-Fatigue (FACIT-F) questionnaires were administered at baseline, and at weeks 12, 26, 50, 74, 98, 122, 146 and 170, respectively. The HUI3 scale ranges from 0-1, with “1” denoting perfect health and “0” denoting death. FACIT-F scores range from 0-52, with higher scores representing less fatigue. SF-36 scores range from 0-100 with higher scores indicating improvement in HRQoL. Changes in HUI3 scores of ≧0.03, 1 FACIT-F scores of ≧4, 2 and individual SF-36 domain scores of 5-103 are considered clinically meaningful.

patients with RA = test system: patients with RA
Excerpt: The ADA pivotal trials were Study I, Study I (both ADA+MTX in MTX partial responders), Study 2 (ADA monotherapy) and Study K (ADA added to standard of care). Patients from the Phase I-III controlled clinical trials of ADA in RA, including the pivotals, were allowed to receive ADA as long-term, open-label therapy in 3 extension studies: 1) Study 18, for ADA monotherapy in the EU, 2) Study 20, for ADA with MTX in NA, and 3) the extension of Study 1, in NA. […] Adverse events are classified as “serious” adverse events based on the following regulatory criteria: fatal, life-threatening, requires inpatient hospitalization, prolongs hospitalization, causes congenital anomaly/birth defect, results in persistent or significant disability/incapacity, an important medical event that jeopardizes the patient and requires medical/surgical intervention to prevent another serious outcome. Serious infections (SI) are defined as “serious adverse events” that are coded under “Infections and Infestations” in the MedDRA coding system. […] 1, 2005 were analyzed in the report described herein. Non-serious infections were not included in this analysis. Serious infections reported during these trials were tabulated and rates were calculated as events per patient-year (E/PY). […] Rates of SI were determined for subsets of patients who, at the time of the SI, had diabetes, or were using concomitant steroids or concomitant MTX.

adult patients with RA = assay: Study 1: change in C-reactive protein at Week 12; format: in vivo, human
Experimental: 407 patients with active RA enrolled in the 2 study arms. Of these patients, 299 (73.5%) patients completed the study until Week 52 and were evaluated.
Patients were grouped into three cohorts based on baseline CRP concentrations: low (<1 mg/dL); intermediate (1-4 mg/dL); and high (>4 mg/dL). Analyses were further conducted in two categories of patients according to their change in CRP concentrations at Week 12: those with a ≧20% decrease in CRP from baseline; or those with a <20% decrease in CRP from baseline. The following efficacy and radiographic measures were analyzed at Week 52 in the three baseline CRP categories and in the two Week 12 change in CRP categories: DAS28, ACR 20/50/70, Health assessment questionnaire (HAQ), and Total Sharp score (TSS).

[3] = open-label trials, N = 2504, 7951 PY

adalimumab: human anti-TNF mAb (HUMIRA, Abbott Laboratories), described in U.S. Pat. No. 6,090,382 as D2E7
Good EULAR response [1]: 18%
Moderate EULAR response [1]: 79%
EULAR response, % good ([1]; Study C, preliminary analysis): 18 (121) %
EULAR response, % moderate ([1]; Study C, preliminary analysis): 78 (121) %
patients reaching HUI3 MCID of 0.03 change from baseline ([2]; week 12 through week 170): about 60%
mean HUI3 change from baseline [2]: 0.18 a, b
mean HUI3 change from baseline ([2]; listed as ada): 0.18
mean HUI3 improvement from baseline ([2]; week 50 (1 year)): +0.17
mean HUI3 improvement from baseline ([2]; week 50 (1 year), listed as ada): 0.17
mean HUI3 improvement from baseline ([2]; week 170 (3 years)): +0.19
mean HUI3 improvement from baseline ([2]; week 170 (3 years), listed as ada): 0.19
serious infection rate (patients with RA; 146 patients with diabetes, 427 PY): 0.049 /PY
patients who experienced a serious infection (patients with RA; 285 of 2504 patients): 11%
serious infection rate (patients with RA; 2504 patients, 7951 PY, to Mar. 1, 2005): 0.045 /PY
rate of serious infections (patients with RA; all patients): 4.5 events per 100 PY
serious infection rate (patients with RA; blinded controlled phases of pivotal trials, 1380 patients): 0.042 /PY
Pneumonia (patients with RA; human, in vivo): 64 events
cellulitis (patients with RA; human, in vivo): 29 events
Septic arthritis (patients with RA; open-label trials): 37 events
Patients with serious infections, % (patients with RA; [3]): 11.4%
Serious infection Cellulitis: number of events E (patients with RA; [3]): 29
Serious infection Cellulitis: rate (E/100PY) (patients with RA; [3]): 0.4 E/100PY
Serious infection Pneumonia: number of events E (patients with RA; [3]): 64
Serious infection Pneumonia: rate (E/100PY) (patients with RA; [3]): 0.8 E/100PY
Serious infection Septic Arthritis: number of events E (patients with RA; [3]): 37
Serious infection Septic Arthritis: rate (E/100PY) (patients with RA; [3]): 0.5 E/100PY
rate of serious infections (patients with RA; with diabetes mellitus): 4.9 events per 100 PY
rate of serious infections (patients with RA; without diabetes mellitus): 4.5 events per 100 PY

CN(Cc1cnc2nc(N)nc(N)c2n1)c1ccc(C(=O)N[C@@H](CCC(=O)O)C(=O)O)cc1 [mtx alone, methotrexate]
patients with <20% decrease in CRP (adult patients with RA): 67%
patients with ≧20% decrease in CRP (adult patients with RA): 33%
